Values quoted from earlier work as cited in article PMC7809386.
Like-named read-outs stand apart in the source and are kept apart here.

What was measured:
SecA (Escherichia coli) [1] = target: SecA (Escherichia coli) (UniProt P10408)
SecA (Escherichia coli) [2] = target: SecA (Escherichia coli) (UniProt P10408); remark: listed apart in the source

SecA (from UniProt P10408)
Kd (SecA (Escherichia coli) [1]): 0.1 µM
Kd (SecA (Escherichia coli) [2]): 0.00074 µM
